T1: p63γ (Homo sapiens, UniProt Q9H3D4)
T1 construct: expressed in transfected cells; host or cells: Saos-2
T1 sequence (Q9H3D4 1-487 isoform Q9H3D4-5): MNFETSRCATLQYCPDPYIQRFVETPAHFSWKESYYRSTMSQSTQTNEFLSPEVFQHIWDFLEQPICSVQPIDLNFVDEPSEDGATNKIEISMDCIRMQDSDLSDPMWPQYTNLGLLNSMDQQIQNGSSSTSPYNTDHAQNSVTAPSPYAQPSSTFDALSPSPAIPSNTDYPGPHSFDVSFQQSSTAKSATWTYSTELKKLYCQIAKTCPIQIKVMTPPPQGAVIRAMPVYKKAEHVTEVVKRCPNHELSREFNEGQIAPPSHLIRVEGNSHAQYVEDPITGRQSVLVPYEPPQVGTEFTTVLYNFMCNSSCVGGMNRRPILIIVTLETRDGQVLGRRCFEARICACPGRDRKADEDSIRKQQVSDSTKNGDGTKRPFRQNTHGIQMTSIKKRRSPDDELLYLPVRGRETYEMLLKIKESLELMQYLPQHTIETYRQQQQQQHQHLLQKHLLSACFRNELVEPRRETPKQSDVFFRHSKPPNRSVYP


Experiments:
Saos-2 cells = assay: Apoptosis by flow cytometry (CD20-gated, sub-G1 DNA content) in transfected Saos-2 cells; assay type: cell-based; settings: for effect on apoptotic function of p53 mutants 181L and 181C: FIG. 6A; for increase in percentage of cells that die of apoptosis with E2F1: co-expression with E2F1, FIG. 4B; for apoptotic function of p63γ and p73α: co-expression, FIG. 15; for apoptosis when expressed alone: no p53 co-expressed; for effect on apoptosis induced by p53H175-L: transcriptionally inactive, mitochondria-targeted mutant p53, FIG. 9A
Procedure: Apoptosis was identified by the expression of the co-transfected cell surface marker CD20, as described in Samuels-Lev et al. (Mol. Cell 8:781-94, 2001, herein incorporated by reference).
The number of apoptotic cells was determined using the methods described in Example 6.
Cells (10^6) were plated 24-48 hours prior to transfection in 10 cm plates. Cells were grown in DMEM supplemented with 10% FCS and transfected with 2 μg of a plasmid expressing CD20 as a transfection marker. Increasing amounts of ASPP1 and ASPP2 were transfected (7.5 μg, 15 μg and 25 μg). 36 hours after the transfection, both attached and floating cells were harvested and analysed using flow cytometry as follows. The transfected cells were gated based on the expression of CD20. The percentage of apoptotic cells was measured by the accumulation of cells with a sub-G1 DNA content derived from at least three individual experiments.
The transfected cells were analyzed by flow cytometry as described in Example 6.

p63γ = biological target: T1, p63γ; assay: Co-immunoprecipitation with p63γ (in vitro translated; transfected H1299 and Saos-2 cells); assay type: binding; settings: for interaction with p63γ in vitro: in vitro translated proteins, FIGS. 12B and 12C; for interaction with p63γ in vivo: transfected cells, FIGS. 13A and 13C
Procedure: V5-tagged ASPP1 and ASPP2 proteins were in vitro translated with cold methionine using the TNT T7 Quick coupled Transcription/Translation System (Promega). Cell lysates were incubated at 30° C. for 1 hour and then immunoprecipitated with anti-V5 antibody on protein G agarose beads.
The agarose beads were added to the binding reactions and incubated on a rotating wheel at 4° C. for 16 hours. The beads were then washed with PBS. The bound proteins were released in SDS gel sample buffer and analysed by 10% SDS-polyacrylamide gel electrophoresis (PAGE). The gels were wet transferred on to Protran nitrocellulose membrane and the resulting blots were first incubated with primary antibody and subsequently with the appropriate secondary HRP conjugated antibody (Dako). The blot was exposed to hyperfilm following the use of ECL substrate solution (Amersham Life Science).
Cells were transfected with 1 μg of p63γ or p73α in the presence or absence of 10 μg of ASPP1 or ASPP2. Cell lysate (1 mg) was immunoprecipitated with an antiASPP1 or ASPP2 antibody (see Example 2 and 7). The immunoprecipitates were separated on an SDS gel and the presence of p63 or p73 on the immunoblots detected by mouse monoclonal antibodies 4A4 (Santa Cruz) and ER-15 (Neomarker) to p63 or p73, respectively. The presence of ASPP1 or ASPP2 was detected with antibodies YX.7 and DX5410, respectively.
In some methods, larger amounts of cell lysate (2 mg) were immunoprecipitated with rabbit antibodies ASPP1.88 or BP77 to ASPP1 and ASPP2, respectively. The expression of ASPP1, ASPP2, p63γ and p73α was detected as described above.

p53 [1] = biological target: T2, p53 (Homo sapiens, UniProt P04637); assay: Transient luciferase reporter assay of p53 transactivation function in Saos-2 cells; assay type: cell-based; settings: for stimulation of the promoter activity of mdm2 and cyclin G: co-expression with p53; for promoter activity of PIG-3: transient transfection reporter assay
T2 construct: expressed in transfected cells
Procedure: (§1) The amount of luciferase expression was determined as previously described in Samuels-Lev et al. (Mol. Cell 8:781-94, 2001, herein incorporated by reference).
(§2) The amount of transactivation function was determined as described in Example 4.
(§3) To determine the amount of protein expression, Saos-2 cells (5×10^5) were plated 24 hours prior to transfection in 6 cm dishes. […] To determine the amount of gene activation, after transfection, the cells were lysed in Reporter Lysis Buffer 16-24 hours post-wash and assayed using the Luciferase Assay kit (Promega, Wis.). The fold activation of a particular reporter was determined by the activity of the transfected plasmid above the activity of vector alone.
(§4) The expression level of transfected proteins was detected using 40 μg of the respective lysates using the antibodies V5, DX.5410, DO1, 4A4 and p73. […] Results were derived from at least three independent experiments.

p53 [2] = biological target: T3, p53 (Homo sapiens, UniProt P04637, R181C); assay: as above; assay type: cell-based; settings: Bax-luc, FIG. 6B
T3 construct: expressed in transfected cells
Procedure: as §1, §2, §3, §4

p53 [3] = biological target: T2, p53; assay: Co-immunoprecipitation with p53 in transfected Saos-2 cells; assay type: binding
Procedure: The cells were lysed in NP40 lysis buffer and 1000 μg of lysate immunoprecipitated with antibodies to iASPP bound to Protein G beads.

Row | Molecule | effect on apoptotic function of p53 mutants 181L and 181C (Saos-2 cells) | transfected cells that die of apoptosis (Saos-2 cells; co-expressed with p53, Example 6, FIGS. 4A and 4C) | increase in percentage of cells that die of apoptosis with E2F1 (Saos-2 cells) | apoptotic function of p63γ and p73α (Saos-2 cells) | apoptosis when expressed alone (Saos-2 cells) | effect on apoptosis induced by p53H175-L (Saos-2 cells) | interaction with p63γ in vitro (p63γ) | interaction with p63γ in vivo (p63γ) | stimulation of the transactivation function of p53 on the Bax promoter (p53 [1]; Example 16, FIGS. 14A and 14B) | stimulation of the promoter activity of mdm2 and cyclin G (p53 [1]) | promoter activity of PIG-3 (p53 [1]) | transactivation function of mutant p53 181C on the Bax gene promoter (p53 [2]) | percentage of apoptotic cells, co-expressed with p53 (Saos-2 cells; Example 11, p53 alone […]%) [%] | transactivation function of p53 on the mdm2 promoter (p53 [1]; FIG. 8C, Ikb even in the presence of ASPP2) | stimulation of the transactivation function of p53 on the Bax promoter (p53 [1]; co-expression with p53, FIG. 8B) | stimulation of the transactivation function of p53 (p53 [1]; versions of ASPP2 co-expressed with p53, FIG. 3) | interaction with p53 by immunoprecipitation and western blot (p53 [3])
1 | ASPP1: Apoptosis Stimulating Protein 1, protein of SEQ ID NO: 2, expressed from a transfected plasmid (protein, listed as Homo sapiens) MMPMILTVFLSNNEQILTEVPITPETTCRDVVEFCKEPGEGSCHLAEVWRGNERPIPFDHMMYEHLQIWGPRREEVKFFLRHEDSPTENSEQGGRQTQEQRTQRNVINVPGDKRTEYGVGNPRVELTLSELQDMAARQQQQIENQQQMLVAKEQRLHFLKQQERRQQQSISENEKLQKLKERVEAQENKLKKIRAMRGQVDYSKIMNGNLSAEIERFSAMFQEKKQEVQTAILRVDQLSQQLEDLKKGKLNGFQSYNGKLTGPAAVELKRLYQELQIRNQLNQEQNSKLQQQKELLNKRNMEVAMMDKRISELRERLYGKKIQLNRVNGTSSPQSPLSTSGRVAAVGPYIQVPSAGSFPVLGDPIKPQSLSIASNAAHGRSKSANDGNWPTLKQNSSSSVKPVQVAGADWKDPSVEGSVKQGTVSSQPVPFSALGPTEKPGIEIGKVPPPIPGVGKQLPPSYGTYPSPTPLGPGSTSSLERRKEGSLPRPSAGLPSRQRPTLLPATGSTPQPGSSQQIQQRISVPPSPTYPPAGPPAFPAGDSKPELPLTVAIRPFLADKGSRPQSPRKGPQTVNSSSIYSMYLQQATPPKNYQPAAHSALNKSVKAVYGKPVLPSGSTSPSPLPFLHGSLSTGTPQPQPPSESTEKEPEQDGPAAPADGSTVESLPRPLSPTKLTPIVHSPLRYQSDADLEALRRKLANAPRPLKKRSSITEPEGPGGPNIQKLLYQRFNTLAGGMEGTPFYQPSPSQDFMGTLADVDNGNTNANGNLEELPPAQPTAPLPAEPAPSSDANDNELPSPEPEELICPQTTHQTAEPAEDNNNNVATVPTTEQIPSPVAEAPSPGEEQVPPAPLPPASHPPATSTNKRTNLKKPNSERTGHGLRVRFNPLALLLDASLEGEFDLVQRIIYEVEDPSKPNDEGITPLHNAVCAGHHHIVKFLLDFGVNVNAADSDGWTPLHCAASCNSVHLCKQLVESGAAIFASTISDIETAADKCEEMEEGYIQCSQFLYGVQEKLGVMNKGVAYALWDYEAQNSDELSFHEGDALTILRRKDESETEWWWARLGDREGYVPKNLLGLYPRIKPRQRTLA | failed to enhance the apoptotic function of either p53 mutant | Approximately 50% | only an additive increase | enhanced the apoptotic function of p63γ and p73α | lower level of apoptosis | failed to enhance the apoptotic function of p53H175-L | co-immunoprecipitated | co-immunoprecipitated transfected p63γ and p73α | around 6 fold | very modest stimulation | specifically stimulated | unable to stimulate |  |  |  |  | 
2 | ASPP2: full length 1128 amino acid protein, SEQ ID NO: 4 (protein, listed as Homo sapiens) MMPMFLTVYLSNNEQHFTEVPVTPETICRDVVDLCKEPGESDCHLAEVWCGSERPVADNERMFDVLQRFGSQRNEVRFFLRHERPPGRDIVSGPRSQDPSLKRNGVKVPGEYRRKENGVNSPRMDLTLAELQEMASRQQQQIEAQQQLLATKEQRLKFLKQQDQRQQQQVAEQEKLKRLKEIAENQEAKLKKVRALKGHVEQKRLSNGKLVEEIEQMNNLFQQKQRELVLAVSKVEELTRQLEMLKNGRIDSHHDNQSAVAELDRLYKELQLRNKLNQEQNAKLQQQRECLNKRNSEVAVMDKRVNELRDRLWKKKAALQQKENLPVSSDGNLPQQAASAPSRVAAVGPYIQSSTMPRMPSRPELLVKPALPDGSLVIQASEGPMKIQTLPNMRSGAASQTKGSKIHPVGPDWSPSNADLFPSQGSASVPQSTGNALDQVDDGEVPLREKEKKVRPFSMFDAVDQSNAPPSFGTLRKNQSSEDILRDAQVANKNVAKVPPPVPTKPKQINLPYFGQTNQPPSDIKPDGSSQQLSTVVPSMGTKPKPAGQQPRVLLSPSIPSVGQDQTLSPGSKQESPPAAAVRPFTPQPSKDTLLPPFRKPQTVAASSIYSMYTQQQAPGKNFQQAVQSALTKTHTRGPHFSSVYGKPVIAAAQNQQQHPENIYSNSQGKPGSPEPETEPVSSVQENHENERIPRPLSPTKLLPFLSNPYRNQSDADLEALRKKLSNAPRPLKKRSSITEPEGPNGPNIQKLLYQRTTIAAMETISVPSYPSKSASVTASSESPVEIQNPYLHVEPEKEVVSLVPESLSPEDVGNASTENSDMPAPSPGLDYEPEGVPDNSPNLQNNPEEPNPEAPHVLDVYLEEYPPYPPPPYPSGEPEGPGEDSVSMRPPEITGQVSLPPGKRTNLRKTGSERIAHGMRVKFNPLALLLDSSLEGEFDLVQRIIYEVDDPSLPNDEGITALHNAVCAGHTEIVKFLVQFGVNVNAADSDGWTPLHCAASCNNVQVCKFLVESGAAVFAMTYSDMQTAADKCEEMEEGYTQCSQFLYGVQEKMGIMNKGVIYALWDYEPQNDDELPMKEGDCMTIIHREDEDEIEWWWARLNDKEGYVPRNLLGLYPRIKPRQRSLA | failed to enhance the apoptotic function of either p53 mutant |  | only an additive increase | enhanced the apoptotic function of p63γ and p73α | lower level of apoptosis | failed to enhance the apoptotic function of p53H175-L | co-immunoprecipitated | co-immunoprecipitated transfected p63γ and p73α |  | very modest stimulation | specifically stimulated | unable to stimulate | 30 | very little effect | about 8 fold | about 7 fold | interact in vivo
